We go through one substance from patent US20110009319A1.

In one experiment the target is TGF-b1 (UniProt P01137). The experiment in a line: cell-based or functional assay.
A further experiment addresses activin-A (UniProt P08476). The experiment can be described thus: cell-based or functional assay.

TGF-b1, sequence (P01137 279-390 limits assumed): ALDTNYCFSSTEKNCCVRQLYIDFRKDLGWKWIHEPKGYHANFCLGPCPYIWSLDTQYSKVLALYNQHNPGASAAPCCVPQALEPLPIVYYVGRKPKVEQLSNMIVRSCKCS
activin-A, sequence (P08476 311-426): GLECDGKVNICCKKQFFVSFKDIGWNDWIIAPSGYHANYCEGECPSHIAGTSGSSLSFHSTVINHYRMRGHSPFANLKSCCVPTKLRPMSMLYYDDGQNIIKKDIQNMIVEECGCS

Take “wild type mouse Cripto (from UniProt P51865 18-134) (receptor)”: in the experiment with TGF-b1, the 3TP-lux luciferase expression induced by TGF-b1 in HepG2 cells (fold reduction) worked out at 4 and the FAST2/A3-luciferase induction by 100 pM TGF-b1 in 293T cells (fold reduction) amounted to 3. The substance also registered a 3TP-lux luciferase expression induced by activin-A in HepG2 cells (fold reduction) in the experiment with activin-A of 4.
